Paper PMC6152903 (Cell reports, 2018)

How the values were obtained:
[1] = target: the molecule itself; experiment: SDS-PAGE without reducing reagent
co-IP = target: the molecule itself; experiment: co-IP

Protein	stoichiometry N [1]	stoichiometry N (co-IP)
endogenous ZMYND8 (natural protein) MDISTRSKDPGSAERTAQKRKFPSPPHSSNGHSPQDTSTSPIKKKKKPGLLNSNNKEQSELRHGPFYYMKQPLTTDPVDVVPQDGRNDFYCWVCHREGQVLCCELCPRVYHAKCLRLTSEPEGDWFCPECEKITVAECIETQSKAMTMLTIEQLSYLLKFAIQKMKQPGTDAFQKPVPLEQHPDYAEYIFHPMDLCTLEKNAKKKMYGCTEAFLADAKWILHNCIIYNGGNHKLTQIAKVVIKICEHEMNEIEVCPECYLAACQKRDNWFCEPCSNPHPLVWAKLKGFPFWPAKALRDKDGQVDARFFGQHDRAWVPINNCYLMSKEIPFSVKKTKSIFNSAMQEMEVYVENIRRKFGVFNYSPFRTPYTPNSQYQMLLDPTNPSAGTAKIDKQEKVKLNFDMTASPKILMSKPVLSGGTGRRISLSDMPRSPMSTNSSVHTGSDVEQDAEKKATSSHFSASEESMDFLDKSTASPASTKTGQAGSLSGSPKPFSPQLSAPITTKTDKTSTTGSILNLNLDRSKAEMDLKELSESVQQQSTPVPLISPKRQIRSRFQLNLDKTIESCKAQLGINEISEDVYTAVEHSDSEDSEKSDSSDSEYISDDEQKSKNEPEDTEDKEGCQMDKEPSAVKKKPKPTNPVEIKEELKSTSPASEKADPGAVKDKASPEPEKDFSEKAKPSPHPIKDKLKGKDETDSPTVHLGLDSDSESELVIDLGEDHSGREGRKNKKEPKEPSPKQDVVGKTPPSTTVGSHSPPETPVLTRSSAQTSAAGATATTSTSSTVTVTAPAPAATGSPVKKQRPLLPKETAPAVQRVVWNSSSKFQTSSQKWHMQKMQRQQQQQQQQNQQQQPQSSQGTRYQTRQAVKAVQQKEITQSPSTSTITLVTSTQSSPLVTSSGSMSTLVSSVNADLPIATASADVAADIAKYTSKMMDAIKGTMTEIYNDLSKNTTGSTIAEIRRLRIEIEKLQWLHQQELSEMKHNLELTMAEMRQSLEQERDRLIAEVKKQLELEKQQAVDETKKKQWCANCKKEAIFYCCWNTSYCDYPCQQAHWPEHMKSCTQSATAPQQEADAEVNTETLNKSSQGSSSSTQSAPSETASASKEKETSAEKSKESGSTLDLSGSRETPSSILLGSNQGSDHSRSNKSSWSSSDEKRGSTRSDHNTSTSTKSLLPKESRLDTFWD	2	
FLAG-ZMYND8 (Sf9) (natural protein) MHPQSLAEEEIKTEQEVVEGMDISTRSKDPGSAERTAQKRKFPSPPHSSNGHSPQDTSTSPIKKKKKPGLLNSNNKEQSELRHGPFYYMKQPLTTDPVDVVPQDGRNDFYCWVCHREGQVLCCELCPRVYHAKCLRLTSEPEGDWFCPECEKITVAECIETQSKAMTMLTIEQLSYLLKFAIQKMKQPGTDAFQKPVPLEQHPDYAEYIFHPMDLCTLEKNAKKKMYGCTEAFLADAKWILHNCIIYNGGNHKLTQIAKVVIKICEHEMNEIEVCPECYLAACQKRDNWFCEPCSNPHPLVWAKLKGFPFWPAKALRDKDGQVDARFFGQHDRAWVPINNCYLMSKEIPFSVKKTKSIFNSAMQEMEVYVENIRRKFGVFNYSPFRTPYTPNSQYQMLLDPTNPSAGTAKIDKQEKVKLNFDMTASPKILMSKPVLSGGTGRRISLSDMPRSPMSTNSSVHTGSDVEQDAEKKATSSHFSASEESMDFLDKSTASPASTKTGQAGSLSGSPKPFSPQLSAPITTKTDKTSTTGSILNLNLDRSKAEMDLKELSESVQQQSTPVPLISPKRQIRSRFQLNLDKTIESCKAQLGINEISEDVYTAVEHSDSEDSEKSDSSDSEYISDDEQKSKNEPEDTEDKEGCQMDKEPSAVKKKPKPTNPVEIKEELKSTSPASEKADPGAVKDKASPEPEKDFSEKAKPSPHPIKDKLKGKDETDSPTVHLGLDSDSESELVIDLGEDHSGREGRKNKKEPKEPSPKQDVVGKTPPSTTVGSHSPPETPVLTRSSAQTSAAGATATTSTSSTVTVTAPAPAATGSPVKKQRPLLPKETAPAVQRVVWNSSSKFQTSSQKWHMQKMQRQQQQQQQQNQQQQPQSSQGTRYQTRQAVKAVQQKEITQSPSTSTITLVTSTQSSPLVTSSGSMSTLVSSVNADLPIATASADVAADIAKYTSKMMDAIKGTMTEIYNDLSKNTTGSTIAEIRRLRIEIEKLQWLHQQELSEMKHNLELTMAEMRQSLEQERDRLIAEVKKQLELEKQQAVDETKKKQWCANCKKEAIFYCCWNTSYCDYPCQQAHWPEHMKSCTQSATAPQQEADAEVNTETLNKSSQGSSSSTQSAPSETASASKEKETSAEKSKESGSTLDLSGSRETPSSILLGSNQGSDHSRSNKSSWSSSDEKRGSTRSDHNTSTSTKSLLPKESRLDTFWD		2
